# Laboratory results as given in patent publication US20080219974A1 (published 2008).
# Substitutions are numbered along the chain they refer to.
# T1: His-tagged HM1.24 antigen, residues N49-A163 of the extracellular domain (human, UniProt Q10589 49-163)
# T1 sequence: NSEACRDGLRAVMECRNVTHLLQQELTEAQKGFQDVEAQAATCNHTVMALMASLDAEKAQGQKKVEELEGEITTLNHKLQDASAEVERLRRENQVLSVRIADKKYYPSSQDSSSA
# B1: HM1.24_H0L0_IgG1_WT (antibody, V domains shown)
# VH: QVQLQQSGAELARPGASVKLSCKASGYTFTPYWMQWVKQRPGQGLEWIGSIFPGDGDTRYSQKFKGKATLTADKSSSTAYMQLSILAFEDSAVYYCARGLRRGGYYFDYWGQGTTLTVSS
# VL: DIVMTQSHKFMSTSVGDRVSITCKASQDVNTAVAWYQQKPGQSPKLLIYSASNRYTGVPDRITGSGSGTDFTFTISSVQAEDLALYYCQQHYSTPFTFGSGTKLEIKR
# B2: HM1.24_H1.1 heavy chain variant with HM1.24_L4 light chain (antibody, human IgG1, kappa, V domains shown)
# VH: QVQLVQSGAEVKKPGASVKVSCKASGYTFTPYWMQWVRQAPGQGLEWMGSIFPGEGDTRYSQSFQGQVTISADKSISTAYMELSRLRSDDTAVYYCARGLRRGGYYFDYWGQGTLVTVSS
# VL: DIVMTQSPLSLPVTLGQPASISCKASQDVNTAVAWYLQKPGKSPKLLIYSASNRYTGVPDRITGSGSGTDFTLKISRVEAEDVGVYYCQQHYSTPFTFGSGTKLEIKR
# B3: HM1.24_H2.4 heavy chain variant with HM1.24_L4 light chain (antibody, human IgG1, kappa, V domains shown)
# VH: EVQLVESGGGLVKPGGSLRLSCAASGYTFTPYWMQWVRQAPGKGLEWMGSIFPGDADTRYSQSFQGQVTISADKSISTAYMELSSLRSEDTAVYYCARGLRRGGYYFDYWGQGTLVTVSS
# VL: B2 VL
# B4: HM1.24_H2.3 heavy chain variant with HM1.24_L4 light chain (antibody, human IgG1, kappa, V domains shown)
# VH: B3 VH with A56S
# VL: B2 VL
# B5: HM1.24_H1.3 heavy chain variant with HM1.24_L4 light chain (antibody, human IgG1, kappa, V domains shown)
# VH: B2 VH with E55D, G56S
# VL: B2 VL
# B6: HM1.24_H1.4 heavy chain variant with HM1.24_L4 light chain (antibody, human IgG1, kappa, V domains shown)
# VH: B2 VH with E55D, G56A
# VL: B2 VL
# B7: HM1.24_H2.1 heavy chain variant with HM1.24_L4 light chain (antibody, human IgG1, kappa, V domains shown)
# VH: B3 VH with D55E, A56G
# VL: B2 VL
# B8: HM1.24_H1.2 heavy chain variant with HM1.24_L4 light chain (antibody, human IgG1, kappa, V domains shown)
# VH: B2 VH with E55S
# VL: B2 VL
# B9: HM1.24_H1L2 (antibody, human IgG1, kappa, V domains shown)
# VH: B2 VH with E55D
# VL: DIVMTQSPSSLSASVGDRVTITCQASQDVNTAVAWYQQKPDQSPKLLIYSASNRYTGVPDRITGSGSGTDFTLTISSLQAEDVAVYYCQQHYSTPFTFGSGTKLEIKR
# B10: HM1.24_H2L2 (antibody, human IgG1, kappa, V domains shown)
# VH: B3 VH with A56G
# VL: B9 VL
# B11: HM1.24_H0L0 (parent antibody in the flow cytometry screen of Example 3) (antibody, V domains shown)
# VH: B1 VH
# VL: DIVMTQSHKFMSTSVGDRVSITCKASQDVNTAVAWYQQKPGQSPKLLIYSASNRYTGVPDRITGSGSGTDFTFTISSVQAEDLALYYCQQHYSTPFTFGSGTKLEIK
# Target: T2, Human HM1.24 on RPMI 8226 multiple myeloma cells (human, UniProt Q10589 1-161)
# T2 sequence (Q10589 1-161 limits assumed): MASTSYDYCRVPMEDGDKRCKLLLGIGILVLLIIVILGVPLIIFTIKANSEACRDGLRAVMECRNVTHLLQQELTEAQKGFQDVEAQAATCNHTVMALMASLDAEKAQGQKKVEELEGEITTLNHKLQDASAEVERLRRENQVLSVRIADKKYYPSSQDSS
# Test: flow cytometry on RPMI 8226 multiple myeloma cells, R-PE anti-human IgG F
row,binding result,Binder
1,binds,B1

# Target: T1, His-tagged HM1.24 antigen, residues …
# Test: not given
row,binding result,Binder
1,binds,B2
2,binds,B3
3,binds,B4
4,binds,B5
5,binds,B6
6,binds,B7
7,binds,B8

# Target: T2, Human HM1.24 on RPMI 8226 multiple …
# Test: flow cytometry on HM1.24+ RPMI 8226 cells
row,binding result,Binder
1,binds,B9
2,binds,B10
3,binds,B11
